Among the data in paper PMC4558565 are other: VENUS/CFP (norm.) and % of the signal with wt bZIP63 values, retold here.

The target of assay [1] is bZIP1-VENUSN (m29) signal relative to bZIP11-CFPN (m30) signal. The assay can be described thus: multi-color BiFC in N. tabacum leaves, confocal microscopy. The conditions noted are these: co-transformed with mCherry-tagged AKIN10; 115-118 nuclei; value is the median of the box plot; parent: est. 2.4; read off a plot.
For assay [2], the target named is bZIP63 in which S29 or all three serines were mutated to alanine. The assay can be described thus: two-hybrid; protoplast two-hybrid (P2H) in Arabidopsis leaf protoplasts; GAL4-AD and GAL4-BD fusions, GAL-UAS4::GUS reporter normalised to 35S::NAN; without and with co-transformation of AKIN10; 16 hr.

Values joined by “and” are separate entries in the source; they are usually repeats but may differ in a detail not shown here. Identical values can stand only once.

Regarding “bZIP63 (split-CFP BiFC fusion) (from UniProt B9DGI8) S29A; S294A; S300A”, in assay [1], the other: VENUS/CFP (norm.) amounted to 1.

B1: bZIP63 (protoplast two-hybrid fusion) (natural protein)
chain: MEKVFSDEEISGNHHWSVNGMTSLNRSASEWAFNRFIQESSAAADDGESTTACGVSVSSPPNVPVDSEEYRAFLKSKLNLACAAVAMKRGTFIKPQDTSGRSDNGGANESEQASLASSKATPMMSSAITSGSELSGDEEEADGETNMNPTNVKRVKRMLSNRESARRSRRRKQAHLSELETQVSQLRVENSKLMKGLTDVTQTFNDASVENRVLKANIETLRAKVKMAEETVKRLTGFNPMFHNMPQIVSTVSLPSETSNSPDTTSSQVTTPEIISSGNKGKALIGCKMNRTASMRRVESLEHLQKRIRSVGDQ
Take B1: in assay [2], the % of the signal with wt bZIP63 is 30% and 40%.

B2: bZIP11 (protoplast two-hybrid fusion) (natural protein)
chain: MESSSSGTTSSTIQTSSGSEESLMEQRKRKRMLSNRESARRSRMKKQKLLDDLTAQVNHLKKENTEIVTSVSITTQHYLTVEAENSVLRAQLDELNHRLQSLNDIIEFLDSSNNNNNNNMGMCSNPLVGLECDDFFVNQMNMSYIMNQPLMASSDALMY
Consider B2, for which the % of the signal with wt bZIP63 in assay [2] was 30% and 40%.
